Columns and labels:
[1] = biological target: 重组产生的C末端截短的RSV(A2毒株)F蛋白 (RSV(A2毒株)) (UniProt P03420)
[2] = biological target: 重组产生的C末端截短的RSV(A2毒株)F蛋白 (RSV(A2毒株)) (UniProt P03420); assay: SPR (BIAcore 3000); truncated F protein on CM5 chip at low density; off-rate at the instrument's detection limit, so an estimate

UniProt P03420, sequence (P03420 26-524): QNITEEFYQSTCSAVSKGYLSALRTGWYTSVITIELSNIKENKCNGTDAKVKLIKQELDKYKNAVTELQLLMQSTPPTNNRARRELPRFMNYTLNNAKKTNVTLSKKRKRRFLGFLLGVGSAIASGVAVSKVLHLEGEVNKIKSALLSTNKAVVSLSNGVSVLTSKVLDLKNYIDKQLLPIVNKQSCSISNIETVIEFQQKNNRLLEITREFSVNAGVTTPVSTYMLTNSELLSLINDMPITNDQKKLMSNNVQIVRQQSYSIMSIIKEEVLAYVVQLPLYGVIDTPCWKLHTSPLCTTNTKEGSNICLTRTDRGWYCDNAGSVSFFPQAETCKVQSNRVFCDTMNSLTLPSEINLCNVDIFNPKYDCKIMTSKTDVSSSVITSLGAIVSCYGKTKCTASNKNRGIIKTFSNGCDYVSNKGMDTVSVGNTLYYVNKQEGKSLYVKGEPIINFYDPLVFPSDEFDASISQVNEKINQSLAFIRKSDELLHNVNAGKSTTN

Work on A4B4L1FR-S28R(莫维珠单抗) (antibody) yielded a fold higher affinity than palivizumab [1] of 70 fold, a fold higher association rate (kon) than palivizumab [1] of 4 fold and a fold lower dissociation rate (koff) than palivizumab [2] of 17 fold.

Reference: CN101273061A
